{"source": "the nanobody polyreactivity screen of Harvey et al. (2022)"}
{"test": "yeast display, Sf9 membrane polyspecificity reagent, FACS + sequencing; frameworks hold sequencing errors", "outline": "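In a synthetic yeast display library (Saccharomyces cerevisiae BJ5465), nanobody expression was induced with galactose for 36–48 hours. FACS gates were set low and high (top ~1%) using anti-HA fluorescence for expression and streptavidin fluorescence for binding of the Sf9 membrane reagent. Each polyreactivity label is drawn from the gate of origin.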"}
{"sequence": "QVQLVESGGGLVQAGGSLRLSCAASGRIFGVYAMGWSRQAPGKERELVATITSGGSTSYADSVKGRFTISRDNAINTVFLQMNSLKPEDTAVYYCNAPYSFFWQQMNYWGQGTQVTVSS", "polyreactivity (PSR sort gate)": "low polyreactivity"}
{"sequence": "QVQLVESGGGLVQAGGSLRLSCAASGRIFGVYAMGWYRQAPGKERELVAAIYSGSSTYYADSVKGRFTISRDNAKNTVYLQMNSLKPEDTAVYYCNADTPYWVRWKYDYWGQGTQVTVSS", "polyreactivity (PSR sort gate)": "low polyreactivity"}
{"sequence": "QVQLVESGGGLVQAGGSLRLSCAASGRIFGVYAMGWYRQAPGKERELVADITRGGGSTYYADSVKGRFTISRDNAKNTVYLQMNSLKPEDTAVYYCAARYRFQRGGYYYWGQGTQVTVSS", "polyreactivity (PSR sort gate)": "high polyreactivity"}
{"sequence": "QVQLVESGGGLVQAGGSLRLSCAASGRIFGVYAMGWYRQAPGKERELVAGINGGDSTYYADSVKGRFTISRDNAKNTVYLQMNSLKPEDTAVYYCAAEADESGSNYDYWGQGTQVTVSS", "polyreactivity (PSR sort gate)": "low polyreactivity"}
{"sequence": "QVQLVESGGGLVQAGGSLRLSCAASGRIFGWNAMGWYRQAPGKERELVAGISSSGGSTYYADSVKGRFTISRDNAKNTVYLQMNSLKPEDTAVYYCARRHYVGYYGYYYWGQGTQVTVSS", "polyreactivity (PSR sort gate)": "high polyreactivity"}
{"sequence": "QVQLVESGGGLVQAGGSLRLSCAASGRIFGWYAMGWYRQAPGKERELVAAISRGGGSTYYADSVKGRFTISRDNAKNTVYLQMNSLKPEDTAVYYCARDGGSLSHYHVGTGKFGYWGQGTQVTVSS", "polyreactivity (PSR sort gate)": "low polyreactivity"}
{"sequence": "QVQLVESGGGLVQAGGSLRLSCAASGRIFGWYAMGWYRQAPGKERELVAAISSGGRTNYADSVKGRFTISRDNAKNTVYLQMNSLKPEDTAVYYCNARRTYLPYKFGYDYWGQGTQVTVSS", "polyreactivity (PSR sort gate)": "low polyreactivity"}
{"sequence": "QVQLVESGGGLVQAGGSLRLSCAASGRIFGYNAMGWYRQAPGKERDLVAAITTSGGSTYYADSVKGRFTISRDNAKNTVYLQMNSLKPEDTAVYYCARDSLQVFYPYASDDYWGQGTQVTVSS", "polyreactivity (PSR sort gate)": "low polyreactivity"}
{"sequence": "QVQLVESGGGLVQAGGSLRLSCAASGRIFGYNAMGWYRQAPGKERELVAAIRRRGGTTYYADSVKGRFTISRDNAKNTVYLQMNSLKPEDTAVYYCNTKYPGRGYYWGQGTQVTVSS", "polyreactivity (PSR sort gate)": "high polyreactivity"}
{"sequence": "QVQLVESGGGLVQAGGSLRLSCAASGRIFGYNAMGWYRQAPGKERELVAAISSTGNTYYADSVKGRFTISRDNAKNTVYLQMNSLKPEDTAVYYCARSWLYSQRRYDYWGQGTQVTVSS", "polyreactivity (PSR sort gate)": "low polyreactivity"}
{"sequence": "QVQLVESGGGLVQAGGSLRLSCAASGRIFGYNAMGWYRQAPGKERELVAAITNGGSTNYADSVKGRFTISRDNAKNTVYFHMNSLKPEDTAVYYCAVKWYPPGHDYWGQGTQVTVSS", "polyreactivity (PSR sort gate)": "low polyreactivity"}
{"sequence": "QVQLVESGGGLVQAGGSLRLSCAASGRIFGYYAMGGYRQAPGKERELVASISYSGASSYYADSVKGRFTISRDNAKNTVYLQMNSLKPEDTAVYYCNTDGDDFFHVIYDYWGQGTQVTVSS", "polyreactivity (PSR sort gate)": "low polyreactivity"}
{"sequence": "QVQLVESGGGLVQAGGSLRLSCAASGRIFGYYAMGWSRQAPGKERELVAAISSDGSTYYADSVKGRFTISRDNAENTVYLQMNSLKPEDTAVYYCAKEGRWDSYGYSAQPFYYWGQGTQVTVSS", "polyreactivity (PSR sort gate)": "low polyreactivity"}
{"sequence": "QVQLVESGGGLVQAGGSLRLSCAASGRIFGYYAMGWYIQAPGKERELVAGIDWSGGNTYYADSVKGRFTISRDNAKNTVYLQMNSLKPEDTAVYYCNTEGGRDTAWYDYWGQGTQVTVSS", "polyreactivity (PSR sort gate)": "low polyreactivity"}
{"sequence": "QVQLVESGGGLVQAGGSLRLSCAASGRIFGYYAMGWYRQAPGKERELVAAISSSGTSTYYADSVKGRFTISRDNAKNTVYLQMNSLKPEDTAVYYCAAYTYYEGDYWGQGTQVTVSS", "polyreactivity (PSR sort gate)": "low polyreactivity"}
{"sequence": "QVQLVESGGGLVQAGGSLRLSCAASGRIFGYYAMGWYRQAPGKERELVAAISYNVVSTNYADSVKGRFTISRDNPKNTVYLQMNSLKPEDTAVYYCAADYGRPYTAFDYWGQGTQVTVSS", "polyreactivity (PSR sort gate)": "low polyreactivity"}
{"sequence": "QVQLVESGGGLVQAGGSLRLSCAASGRIFGYYAMGWYRQAPGKERELVAAITINGGRTYYADSVKGRFTISRDNAKNTVYLQMNSLKPEDTAVYYCTATSRYNRLGYWGQGTLVTVSS", "polyreactivity (PSR sort gate)": "high polyreactivity"}
{"sequence": "QVQLVESGGGLVQAGGSLRLSCAASGRIFGYYAMGWYRQAPGKESELVATINSVGSTNYADSVKGRFTISRDNAKNTVYLQMNSLKPEDTAVYYCATDSAYTFFTYRLWRHGYWGQGTQVTVSS", "polyreactivity (PSR sort gate)": "low polyreactivity"}
{"sequence": "QVQLVESGGGLVQAGGSLRLSCAASGRIFGYYTMGSYRQAPGKEMELVATINWSGGSTYYADSVKGRFTISRDNAKNTVYLQMNSLKPEDTAVYYCADRPALWGRYRGYDYWGQGTQVTVSS", "polyreactivity (PSR sort gate)": "high polyreactivity"}
{"sequence": "QVQLVESGGGLVQAGGSLRLSCAASGRIFGYYVMGWYRQAPGKERELVAAISRSGGSTYYADSVKGRFTISRDNAKNTVYLEMNSLKPEDTAVYYCANYSPRYPNYDYWGQGTQVTVSS", "polyreactivity (PSR sort gate)": "high polyreactivity"}
{"sequence": "QVQLVESGGGLVQAGGSLRLSCAASGRIFHKYAMGWYRQAPGKERELVATIRSDDITYYADSVKGRFTISRDNAKNTVYLQMNSLKPEDTAVYYCAAYFWRYSSLYYYWGQGTQVTVSS", "polyreactivity (PSR sort gate)": "high polyreactivity"}
{"sequence": "QVQLVESGGGLVQAGGSLRLSCAASGRIFHQYAMGWYRQAPGKERELVAAITTRGTSTYYADSVKGRFTISRDNAKNTVYLQMNSLKPEDTAVYYCAAKFFGSVGHVAGDYWGQGTQVTVSS", "polyreactivity (PSR sort gate)": "high polyreactivity"}
{"sequence": "QVQLVESGGGLVQAGGSLRLSCAASGRIFHRYAMGWYRQAPGKERELVAAISYSTARTYYADSVKGRFTISRDNAKNTVYLQMNSLKPEDTAVYYCAARYQGGYDYWGQGTQVTVSS", "polyreactivity (PSR sort gate)": "high polyreactivity"}
{"sequence": "QVQLVESGGGLVQAGGSLRLSCAASGRIFHVYAMGWYRQAPGKERELVAAISSGDRTYYADSVKGRFIISRDNAKNTVYLQMNSLKPEDTAVYYCAATAQYYHYHLAKYDYWGQGTQVTVSS", "polyreactivity (PSR sort gate)": "low polyreactivity"}
{"sequence": "QVQLVESGGGLVQAGGSLRLSCAASGRIFHWYVMGWYRQAPGKERELVAAISWSSGSTYADSVKGRFTISRDNAKNTVYLQMNSLKPEDTAVYYCNAKTYYPPFGYWGQGTQVTVSS", "polyreactivity (PSR sort gate)": "low polyreactivity"}
{"sequence": "QVQLVESGGGLVQAGGSLRLSCAASGRIFHYYAMGWYRQAPGTERELVAAITSSGGSTYYADSVKGRFTISRDNAKNTVYLQMNSLKPEDTAVYYCAAGLIVGRFLRYDYWGQGTQVTVSS", "polyreactivity (PSR sort gate)": "high polyreactivity"}
{"sequence": "QVQLVESGGGLVQAGGSLRLSCAASGRIFIANTMGCYRQAPGKERELVAAITQRGDSTYYADSVKGRFTISRDNAKNTVYLQMNSLKPEDTAVYYCAARYYLSSYVRYNYWGQGTQVTVSS", "polyreactivity (PSR sort gate)": "high polyreactivity"}
{"sequence": "QVQLVESGGGLVQAGGSLRLSCAASGRIFIGNAMGWYRQAPGKERELVAAISKRGGSTYYADSVKGRFTISRDNAKNTVYLQMNSLKQEDTAVYYCNKESLYREFDYWGQGTQVTVSS", "polyreactivity (PSR sort gate)": "low polyreactivity"}
{"sequence": "QVQLVESGGGLVQAGGSLRLSCAASGRIFIGNAMGWYRQAPGKERELVADISYSGGTTYYADSVKGRFTISRENAKNTVYVQMNSLKPVDTAVYYCNKYDPRPVWQGWVWIEYYYWGQGTQVTVSS", "polyreactivity (PSR sort gate)": "low polyreactivity"}
{"sequence": "QVQLVESGGGLVQAGGSLRLSCAASGRIFIHYAMGWYRQAPGKERELVAAISWGGGRTYYADSVKGRFTISRDNAKNTVYLQMNSLKPEDTAVYYCAAAGRGSGYDYWGQGTQVTVSS", "polyreactivity (PSR sort gate)": "high polyreactivity"}
{"sequence": "QVQLVESGGGLVQAGGSLRLSCAASGRIFIHYAMGWYRQAPGKERELVAAITFNGGSTYYADSVKGRFTISRDNAKNTVYLQMNSLKPEDTAVYYCAARLSKRSGYYYWGQGTQVTVSS", "polyreactivity (PSR sort gate)": "high polyreactivity"}
{"sequence": "QVQLVESGGGLVQAGGSLRLSCAASGRIFIINALGWYRQAPGKERELVAAINTGGGTNYADSVKGRFTISRDNAKNTVYLQMNSLKPEDTAVYYCAARTYDYRARHKDGYWGQGTQVTVSS", "polyreactivity (PSR sort gate)": "high polyreactivity"}
{"sequence": "QVQLVESGGGLVQAGGSLRLSCAASGRIFILYAMGWYRQAPAKERALVAAISSGGGRTYYADSVKGRFTISRDNAKNTVYLQMNSLKPEDTAVYYCATRRRRTSQRQGYDYWGQGTQVTVSS", "polyreactivity (PSR sort gate)": "high polyreactivity"}
{"sequence": "QVQLVESGGGLVQAGGSLRLSCAASGRIFISNAMGWYRQAPGKERELVAAISWRGTRTYYADSVKGRFTISRENAKNTVYLEMNSLKPEVTAVYYCNADRHRSRGMDYWGQGTQVTVSS", "polyreactivity (PSR sort gate)": "high polyreactivity"}
{"sequence": "QVQLVESGGGLVQAGGSLRLSCAASGRIFITNAMGWYRQAPGKERELVAVISYIGGRTYYADSVKGRFTISRDNAKNTVYLQMNSLKPEATAVYYCAARRSRPTYYSTGVNYWGQGTQVTVSS", "polyreactivity (PSR sort gate)": "high polyreactivity"}
{"sequence": "QVQLVESGGGLVQAGGSLRLSCAASGRIFIVNTMGWYRQAPGKERELVATIDSDGDTNYADSVKGRFTISRDNAKNTVYLQMNSLKPEDTAVYYCAASYTHTLAALKGGRMDYWGQGTQVTVSS", "polyreactivity (PSR sort gate)": "low polyreactivity"}
{"sequence": "QVQLVESGGGLVQAGGSLRLSCAASGRIFIVYPMGWYRQAPGKERELVATITRGGSTNYADSVKGRFTISRDNAKNTVYLQMNSLKPEDTAVYYCAKGWTNRYPWPGRFRTLYDYWGQGTQVTVSS", "polyreactivity (PSR sort gate)": "low polyreactivity"}
{"sequence": "QVQLVESGGGLVQAGGSLRLSCAASGRIFIVYVMGWYRQAPGKERELVAGITLSGGNTYYADSVKGRFTISRDNAKNTVYLQMNSLKPEDTAVYYCAAGWYGIEMDYWGQGTQVTVSS", "polyreactivity (PSR sort gate)": "high polyreactivity"}
{"sequence": "QVQLVESGGGLVQAGGSLRLSCAASGRIFIYNAMGWYRQAPGKEREFVAAISSSGGSTYYADSVKGRFTISRDNAKNTVYLQMNSLKPEDTAVYYCAAGGWPYSGGWFFQPNYDYWGQGTQVTVSS", "polyreactivity (PSR sort gate)": "low polyreactivity"}
{"sequence": "QVQLVESGGGLVQAGGSLRLSCAASGRIFIYNAMGWYRQAPGKERELVAAISSGGSTYYADSVKGRFTISRDNANNTVYLQMNSLKAEDTAVYYCAAPRGHGKYYSWGQGTQVTVSS", "polyreactivity (PSR sort gate)": "high polyreactivity"}
{"sequence": "QVQLVESGGGLVQAGGSLRLSCAASGRIFIYYAMGWYRQAPGKERELVAAISWSGGRTYYADSVKGRFTISRDNAKNTVYLQMNSLKPEDTAVDYCAGYSFANHGFDYWGQGTQVIVSS", "polyreactivity (PSR sort gate)": "high polyreactivity"}
{"sequence": "QVQLVESGGGLVQAGGSLRLSCAASGRIFIYYTMGWYRQAPGKERELVASITWSGGRTYYADSVKGRFTISRDNAKNTVYLQMNSLKPEDTAVYYCNAGYSIGLVAYGYWGQGTQVTLSS", "polyreactivity (PSR sort gate)": "low polyreactivity"}
{"sequence": "QVQLVESGGGLVQAGGSLRLSCAASGRIFKENAMGWYRQAPGKERELVAAISSGASTSYADSVKGRFTISRDNAKNTVYLQMNSLKPEDTAVYYCNRGGDLYYPGWLFDYWGQGSQVTVSS", "polyreactivity (PSR sort gate)": "low polyreactivity"}
